In FireProtDB (doi:10.1016/j.jmb.2011.02.053):

Details: pH 7, Fluorescence, transition: 2, reversible: yes, whole UniProt chain shown; for denaturant midpoint (higher = more stable) / unfolding free energy: 25 °C, Urea
[1] = Aspergillus oryzae (strain ATCC 42149 / RIB 40), MOPS 30mM
[2] = Borreliella burgdorferi, Sodium phosphate 5mM

B1: Guanyl-specific ribonuclease T1 wild type, P00651 (protein)
chain: MMYSKLLTLTTLLLPTALALPSLVERACDYTCGSNCYSSSDVSTAQAAGYQLHEDGETVGSNSYPHKYNNYEGFDFSVSSPYYEWPILSSGDVYSGGSPGADRVVFNENNQLAGVITHTGASGNNFVECT
denaturant midpoint (higher = more stable) [1]: 5.3 M
unfolding free energy [1]: 6.4 kcal/mol

B2: Variable large protein wild type, O06878 (protein)
chain: MKKISSAILLTTFFVFINCKSQVADKDDPTNKFYQSVIQLGNGFLDVFTSFGGLVAEAFGFKSDPKKSDVKTYFTTVAAKLEKTKTDLNSLPKEKSDISSTTGKPDSTGSVGTAVEGAIKEVSELLDKLVKAVKTAEGASSGTAAIGEVVADADAAKVADKASVKGIAKGIKEIVEAAGGSEKLKAVAAAKGENNKGAGKLFGKAGAAAHGDSEAASKAAGAVSAVSGEQILSAIVTAADAAEQDGKKPEEAKNPIAAAIGDKDGGAEFGQDEMKKDDQIAAAIALRGMAKDGKFAVKDGEKEKAEGAIKGAAESAVRKVLGAITGLIGDAVSSGLRKVGDSVKAASKETPPALNK
denaturant midpoint (higher = more stable) [2]: 1.19 M
unfolding free energy [2]: 4.6 kcal/mol

B3: Guanyl-specific ribonuclease Sa wild type, P05798 (protein)
chain: DVSGTVCLSALPPEATDTLNLIASDGPFPYSQDGVVFQNRESVLPTQSYGYYHEYTVITPGARTRGTRRIITGEATQEDYYTGDHYATFSLIDQTC
unfolding enthalpy (calorimetric) (Kitasatospora aureofaciens, Thermal, MOPS 30mM): 92 kcal/mol
